Test results from patent publication US20240166738A1 (Alector, published 2024).

B1: TM-4 (antibody, V domains shown)
VH: EVQVQQSGPVLVKPGASVKMSCKASGYTFTDYYMNWVKQSHGKNLEWIGVINPYNGGTSYHQKFKGKATLTVDKSSSTAYMELNSLTSEDSAVYYCARAATVVAGFDYWGQGTTLTVSS
VL: QAVVTQESALTTSPGETVTLTCRSSTGAVTTSNYANWVQEKPDHLFTGLIGGTNNRAPGVPARFSGSLIGDKAALTITGAQTEDEAIYFCVLWYSNHLVFGGGTKLTVL
B2: TM-3 (antibody, V domains shown)
VH: QVTLKESGPGIVQPSQTLSLTCSFSGFSLNTLGRGVGWIRQPSGKGLEWLAKIWWNDDKFYYPALKSRLTISKDTSKNQIFLKIANVDTADSATYYCARIAGGTGAAYWGQGTTLTVSS
VL: DIVMTQAAFSNPVTLGTSASISCRSSKSLLHSNGITYLYWYLQKPGQSPQLLISQMSSLASGVPDRFSSGGSGTDFTLRISRVEAEDVGVFYCAQNLELPWTFGGGTKLELK
B3: TM-9 (antibody, V domains shown)
VH: EVQLVESGGDLVKPGGSLKLSCVASGFTFSGYGMSWVRQTPDKRLEWVATISSGSFYIYYPDSVKGRLTVSRDNAKNTLYLQMSSLKSEDTAIYYCARQNFYYGCEDYWGQGTTLTVSS
VL: DIVMTQAAFSNPVTLGTSASISCRSSKSLLHSNGITYLYWYLQKPGQSPQLLIYQMSNLASGVPNRFSSSGSGTDFTLRISRVEAEDVGVYYCAQNLELPWTFGGGTKLEIK
B4: TM-77 (antibody, V domains shown)
VH: QIQLQQSGAELVRPGASVKLSCKASGYTFTDYEMHWVKQTPVHGLEWIGVIDPETGGTAYNQMFKGKATLTADKSSSTAYMDLRSLTSEDSAVYYCVKYGIEGYWGQGTTLTVSS
VL: DVVMTQIPLTLSVTLGQPASISCKSSQSLFHSNGKTYLNWLLQRPGQSPKLLIYMVSKLESGVPDRFSGSGSGTDFTLKISRVEAEDLGVYYCLQVTHFPLTFGAGTKLELK
B5: TM-50 (antibody, V domains shown)
VH: QVQLKESGPVLVAPSQSLSITCTVSGFSLTNYGVHWVRQPPGKGLEWLGVIWAGGNTNYNSALMSRLSISKDNSKSQVFLKMNSLQTDDTAMYYCAKEAKLLRSYAMDYWGQGTLVTVSA
VL: DVQMTQTTSSLSASLGDRVTISCRASQDINNYLYWYQQKPDGTVKLLIYYTSMLHSGVPSRFSGSGSGTDYSLTISNLEQEDIATYFCQQGSTLMYTFGGGTKLEIK
B6: TM-47 (antibody, V domains shown)
VH: QVQLKESGPVLVAPSQSLSITCTVSGFSLTNYGVHWVRQPPGKGLEWLGVIWAGGNTNYNSALMSRLSISKDNSKSQVFLKMNSLQTDDTAMYYCAKEAKLLRSYAMDYWGQGTSVTVSS
VL: DIVMTQSPSSLTVTAGEKVTMSCKSSQSLLNSGNQKNYLTWYQQKPGQPPKLLIYWASTRESGVPDRFTGSGSGTDFTLTISSVQAEDLAVYYCQNDYSYPLTFGAGTKLEIK
B7: TM-41 (antibody, V domains shown)
VH: EVQLQQSGAELVKPGASIKLSCTASGFNIKDCYMHWVKQRTEQGLEWIGRIDPEDGTTNFAPKFQDRATITADTSSNTAYLQLTSLTSEDTAVYYCAREWDSGAYWGQGTLVTVSA
VL: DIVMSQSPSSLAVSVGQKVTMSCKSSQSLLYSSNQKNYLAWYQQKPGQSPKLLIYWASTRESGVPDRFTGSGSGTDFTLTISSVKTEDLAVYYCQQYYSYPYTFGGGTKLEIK
B8: TM-68 (antibody, V domains shown)
VH: EVQLQQSGAELVRPGASVKLSCTASGFNIKDDYMHWVRQRPEQGLEWIGWIDPENGDTEYASKFQGKATMTADTSSNTAYLHLSSLTSEDTAVYYCTKPQTATTCWGQGTLVTVSS
VL: DIVMTQAAFSNPVTLGTSVSISCSSSKSLLHSSGITYLYWYLQRPGQSPQLLIYRMSNLASGVPDRFSGSGSGTDFTLRISRVEAEDVGVYYCAQMLERPWTFGGGTKLEIK
B9: TM-1 (antibody, V domains shown)
VH: QVQLQQSGAELVRPGTSVKVSCKASGYAFTNYLIEWVKQRPGQGLEWIGVINPGSGGTKYNEKLKGKATLTADKSSSTAYMQLSSLTSVDSAVYFCARRGYTIYDFYAMDYWGQGTSVTVSS
VL: DVLMTQTPLSLPVSLGDHASISCRSSQSIVYNNGNTYLEWYLQKPGQSPKLLIYKVSNRFSGVPDRFSGSGSGTDFTLKISRVEAEDLGVYYCFQVSHVPFTFGSGTKLEIK
B10: TM-22 (antibody, V domains shown)
VH: QVQLQQSGPELVKPGASVKISCKASGYRFTSYYIHWVKQRPGQGLEWIGWIYPGNGITNYNEKFKGKATLTADTSSSTAYMQLSSLTSEDSAVYYCASPYYGIRNCYFDVWGTGTTVTVSS
VL: DVLMTQTPLSLPVSLGDHASISCRSGQSIVHSNGNTYLEWYLQKPGQSPKLLIYKVSNRFSGVPDRFSGSGSGTDFTLKISRVEAEDLGIYYCFQGSHVPWTFGGGTKLEIK
B11: TM-19 (antibody, V domains shown)
VH: DVQLQQSGAELVRPGASVKLSCTASGFNIKDYYMYWVKQRPEQGLEWIGRIDPEDGDTENAPKFRGMATMTADTSSNTAYLQLNSLTSEDTAVYYCTTRIGNLYHVMDYWGHGTSVTVSS
VL: DVLMTQTPLSLPVSLGDQASISCRSSQSIVHSNGNTYLEWYLQKPGQAPKLLIDKVFNRFSGVPDRFSGSGSGTDFTLKISRVEAEDLGVYYCFQGSHVPFTFGSGTKLEIK
B12: TM-39 (antibody, V domains shown)
VH: HVQRQQSGTELAKPGASVKLSCKTSGYTFTDYWMHWIKQRPGQGLEWIGFINPSSGYTKYNQNFKDKATLTADKSSSTAYMQLSSLTYEDSAVFYCAREAGSISDWYFDVWGTGTTVTVSS
VL: DIVMTQAAPSIPVTPGESVSISCRSSKTLLNSNGNTYLYWFLQRPGQPPQLLIYRMSNLASGVPDRFSGSGSGTAFTLRISRVEAEDVGVYYCMQHLDYPYTFGGGTQLEIK
B13: TM-44 (antibody, V domains shown)
VH: EVQLVESGGGLVKPGGSLKLSCAASGFTFSDYGMHWVRQAPEKGLEWVAYISSGSSTIYYADTVKGRFTISRDNAKNTLFLQMTSLRSEDTAMYYCARNYGSPYAMDYWGQGTSVTVSS
VL: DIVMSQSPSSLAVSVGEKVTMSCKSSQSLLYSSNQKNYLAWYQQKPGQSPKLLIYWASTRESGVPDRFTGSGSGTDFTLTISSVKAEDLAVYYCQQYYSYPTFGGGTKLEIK
B14: TM-83 (antibody, V domains shown)
VH: QVQLQQPGTELVKPGALVKLSCKASGYTFTTYWIHWVKQRPGQGLEWIGNINPSNGNTKNNERFKTKATLTVDKSSSTAYMQLSSLTSEDSAVYYCVRGDYYGTSYPFWGQGTLVTVSS
VL: DVVMTQTPLSLPVSLGDQASISCRSSQSLVHSNGITYLHWYLQKPGQSPKLLIYKVSNRFSGVPDRFSGSGSGTDFTLKISRVEAEDLGVYFCSQSTHVPYTFGGGTKLEIK
B15: TM-51 (antibody, V domains shown)
VH: QVQLQQPGAELVKPGASVKLSCKASGYTFTTYWIDWVKQRPGQGLEWIGNMFPGSSRTNYNEKFKSRATLTVDTSSSTAYMQLSSLTSDDSAVYYCARKEGLWTYGYDGGAWFAYWGQGTLVTVSA
VL: DIVMSQSPSSLAVSVGEKVTMSCKSSQSLRNSRTRKNYLAWYQQKPGQSPKLLIYWASTRESGVPDRFTGSGSGTDFTLTISSVQAEDLAIYYCKQSYNLLTFGAGTKLELK
B16: TM-74 (antibody, V domains shown)
VH: EVQLQQSGPELVKPGASVKMSCKASGYTFTSYVIHWVKQKPGQGLEWIGFINPNNDGTKYNEKFRGKATLTSDKSSSTAYMELSSLTSEDSAVYYCARPYYDYEGYTMDYGGQGTSVTVSS
VL: DVVMTQSQKFMSTSVEDRVSITCKASQNVRSAVAWYQQKPGQSPKALIYLASNRHTGVPDRFAGSGSGTDFTLTISSVQSEDLADYFCLQHWKYPFTFGSGTKLEIK
B17: TM-70 (antibody, V domains shown)
VH: EVQLVESGGALVKPGGSLKLSCAASGFTFSNYAMSWVRQTPEKRLEWVATIGYGGSYSYYPDSVKGRFTISRDNAKYTLYLQMSGLRSEDTALYYCARQDSNYEGVWFAYWGQGTLVT
VL: not shown
B18: TM-17 (antibody, V domains shown)
VH: QVQLQQSGAELIRPGTSVKVSCKASGYAFTDYLIEWVKQRPGQGLEWIGVINPGSGGTNYNEKFKGKAKLTADKSSSTAYMQLSSLTSEDSAVYFCVRSSYGVYVAYPMDYWGQGTSVTVSS
VL: DIQMTQSPSSLSASLGERVSLTCRASQDIGSNLNWLQQEPDGTIKRLIYATSSLDSGVPKRFSGSRSGSDYSLTISSLESEDFVDYYCLQYASSPRTFGGGTKLEIK
B19: TM-79 (antibody, V domains shown)
VH: EVQLQQSGPELVKPGASVKMSCKASGYTFTNYVMHWLKQKPGQGLEWIAHITPHNDGTKYNEKFKGKATLTSDRSSSTAYMELNSLTSEDSAIYYCARSGQFGRGDYFHYWGQGTTVTVSS
VL: DIVLTQSPASLAVSLGQRATISCRASKSVSTSGSIYIHWYQQKPGQPPKLLIYLTSNLESGVPARFSGSGSGTDFTLNIHPVEEEDAATYYCQHSGELPWTFGGGARLEIK
B20: TM-34 (antibody, V domains shown)
VH: EVQLVESGGGLVKPGGSLKLSCAASGFSFSDSGMDWVRQAPEKGLEWFAYISSGSSTTHYADTVKGRFIISRDNAKNTLFLQMTSLRSEDTAMYYCVRRDGNYWYFDVWGTGTTVTVSS
VL: QIVLSQSPVILSASPGEKVTMTCRATSSVTYMHWYQLKPGSSPKPWIYATSNLASGVPARFSGSGSGTSYSLTISRVEAEDAATYYCQQWSSNPYTFGGGTKLEIK
B21: TM-26 (antibody, V domains shown)
VH: QVQLQQSGAELIRPGTSVKVSCKASGYAFTNYLIEWVKKRPGQGLEWIGVINPGSGITNYNEKFKGKATLTADKSSSTAYMQLSSLTSEDSAVYFCARSDFITTVVADYWGQGTTVTVSS
VL: DIVVTQTPLSLPVSFGDQVSISCRSSQSLTNYYGNTYLSWYLHKPGQSPQLLIYGISNRFSGVPDRFSGSGSGTDFTLKISTIKPEDLGMYYCLQGTHQPRTFGGGTKLEIK
B22: TM-23 (antibody, V domains shown)
VH: QVQLQQSGAELIRPGTSVKVSCKASGYAFTNYLIEWVKKRPGQGLEWIGVINPGSGITNYNEKFKGKATLTADKSSSTAYMQLSSLTSEDSAVYFCARSDFITTVVADYWGQGTTVTVSS
VL: DIVVTQTPLSLPVSFGDQVSISCRSSQSLTNYYGNTYLSWYLHKPGQSPQLLIYGISNRFSGVPDRFSGSGSGTDFTLKISTIKPEDLGMYYCLQGTHQPRTFGGGTKLEIK
B23: TM-46 (antibody, V domains shown)
VH: QVQLQQSGADLVKPGASVKISCKASGYAFSSFWMNWVKLRPGKGLEWIGQIYPGDGDTDYNGKFKDKATLTADTSSNTAYMQLSRLTSEDSAVYFCARGDGFSYFDYWGQGTILTVSS
VL: QIVLTQSPVIMSASPGERVTMTCCASSRVNYMHWYQQKSGSYPKRWIYDTSKLASGVPGRFSGSGSGTSYSLTISSMEAEDAATYYCQQWSSNPPTFGGGTKLEIK

Target: human TMEM106B (human, UniProt Q9NUM4 2-274)
Assay: cell-based or functional assay
Note: test concentration or dose not given here.

| Binder | % Protection from CPE [%] |
| --- | --- |
| B1 | 3.7 |
| B2 | 97.2 |
| B3 | 96.4 |
| B4 | 4.7 |
| B5 | 3.9 |
| B6 | 3.8 |
| B7 | 3.5 |
| B8 | 3.5 |
| B9 | 6.4 |
| B10 | 4.4 |
| B11 | 99.8 |
| B12 | 4.2 |
| B13 | 3.2 |
| B14 | 4.3 |
| B15 | 5.4 |
| B16 | 3.7 |
| B17 | 3.4 |
| B18 | 3.7 |
| B19 | 4.5 |
| B20 | 4.1 |
| B21 | 4.3 |
| B22 | 3.7 |
| B23 | 4.7 |
